Results on three molecules are retold here after paper PMC8184850, “Cryo-EM structure of TFIIH/Rad4–Rad23–Rad33 in damaged DNA opening in nucleotide excision repair” (Nature Communications, 2021).

Data set [1] has as its target T1, coreTFIIH (7 subunits);Rad4-Rad23 (Saccharomyces cerevisiae? (yeast, tfb6 …, UniProt Q00578;P06839;P32776;Q02939;Q04673;Q12004;Q3E7C1;P14736;P32628 …, |)). As to the kind of experiment: EMSA; AMP-PNP, 2 mM Mg2+; EMSA: 20 mM HEPES, 100 mM K-acetate, 2 mM Mg-acetate, 5 mM DTT, room temperature 20 min, 250 nM each component, 0.2x TBE agarose gel at 4 C (pH not stated in this buffer). The settings on record: protein: native;recombinant; tags: TAP tags on Tfb4 and Ssl2; TEV-treated;His-purified, thrombin-digested; copies: 1;1;1;1;1;1;1;1;1; label: 32P 5' end (T4 PNK) in EMSA; blunt.

Data set [2] concerns the target T2, coreTFIIH (7 subunits);Rad4-Rad23;Rad33 (Saccharomyces cerevisiae? (yeast, tfb6 …, UniProt Q00578;P06839;P32776;Q02939;Q04673;Q12004;Q3E7C1;P14736;P32628;Q04231 …, ||)). Description: EMSA; 100 nM Rad33; Rad4-Rad23 0-100 nM; EMSA: 20 mM HEPES, 100 mM K-acetate, 2 mM Mg-acetate, 5 mM DTT, room temperature 20 min, 250 nM each component, 0.2x TBE agarose gel at 4 C (pH not stated in this buffer). Particulars: protein: native;recombinant;recombinant; tags: TAP tags on Tfb4 and Ssl2; TEV-treated;His-purified, thrombin-digested;His (HisTrap-purified, pETDuet); copies: 1;1;1;1;1;1;1;1;1;1; label: 32P 5' end (T4 PNK) in EMSA; blunt.

For data set [3], the target named is T2, coreTFIIH (7 subunits);Rad4-Rad23;Rad33. As to the kind of experiment: glycerol gradient sedimentation; ATP; EMSA: 20 mM HEPES, 100 mM K-acetate, 2 mM Mg-acetate, 5 mM DTT, room temperature 20 min, 250 nM each component, 0.2x TBE agarose gel at 4 C (pH not stated in this buffer). Particulars: protein: native;recombinant;recombinant; tags: TAP tags on Tfb4 and Ssl2; TEV-treated;His-purified, thrombin-digested;His (HisTrap-purified, pETDuet); copies: 1;1;1;1;1;1;1;1;1;1; label: 32P 5' end (T4 PNK) in EMSA; 5' overhang on strand 1: 9 nt from printed strands (text says 10 nt). (A gel shift assay detects complexes by their altered migration in electrophoresis.)

The target in data set [4] is T1, coreTFIIH (7 subunits);Rad4-Rad23. Description: EMSA; ATP 4 mM, 2 mM Mg2+; EMSA: 20 mM HEPES, 100 mM K-acetate, 2 mM Mg-acetate, 5 mM DTT, room temperature 20 min, 250 nM each component, 0.2x TBE agarose gel at 4 C (pH not stated in this buffer). Particulars: protein: native;recombinant; tags: TAP tags on Tfb4 and Ssl2; TEV-treated;His-purified, thrombin-digested; copies: 1;1;1;1;1;1;1;1;1; label: 32P 5' end (T4 PNK) in EMSA; 5' overhang on strand 1: 9 nt from printed strands (text says 10 nt).

B1: -24/+15 AAF (dsDNA)
DNA 1: CCCATTCCAACCATCCCACTACCTGTCCATCTTCACTCA
DNA 2: TGAGTGAAGATGGACAGGTAGTGGGATGGTTGGAATGGG
modifications: N-2-acetylaminofluorene adduct on the single G of strand 1 (nt 25); printed strand spans -24 to +14
B1: the binding result in data set [1] is listed as “binds”.

B2: -24/+24 AAF (dsDNA)
DNA 1: CCCATTCCAACCATCCCACTACCTGTCCATCTTCACTCAACTATCACCC
DNA 2: GGGTGATAGTTGAGTGAAGATGGACAGGTAGTGGGATGGTTGGAATGGG
modifications: N-2-acetylaminofluorene adduct on the single G of strand 1 (nt 25, position 0)
Take B2: the binding result in data set [1] and in data set [2] was “binds” each time.

B3: -24*/+24 AAF (dsDNA)
DNA 1: B2 DNA 1
DNA 2: GGGTGATAGTTGAGTGAAGATGGACAGGTAGTGGGATGGT
modifications: N-2-acetylaminofluorene adduct on the single G of strand 1 (nt 25, position 0)
With B3, the binding result in data set [3] and in data set [4] was “binds” each time.
